T1: Human IL-1Rrp2/IL-1R6 protein, His Tag (ACROBiosystems, IL2-H52H6) (human, UniProt Q9HB29 20-335)
T1 construct: Bought protein; the soluble protein is likely only the extracellular part; also called hIL-36R; human IL36R antigen; not shown: His tag
T1 sequence: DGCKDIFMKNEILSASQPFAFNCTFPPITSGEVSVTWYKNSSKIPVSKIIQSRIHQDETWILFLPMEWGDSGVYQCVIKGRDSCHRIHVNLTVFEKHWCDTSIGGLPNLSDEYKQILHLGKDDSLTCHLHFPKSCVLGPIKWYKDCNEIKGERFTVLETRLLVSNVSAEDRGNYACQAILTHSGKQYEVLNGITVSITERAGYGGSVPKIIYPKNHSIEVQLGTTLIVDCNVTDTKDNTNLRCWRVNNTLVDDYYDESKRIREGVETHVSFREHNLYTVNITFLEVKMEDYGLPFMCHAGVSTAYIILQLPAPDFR

T2: IL-36R naturally expressed on OVCAR8 cells and on normal human epidermal keratinocytes (NHK cells) (human, UniProt Q9HB29 20-575)
T2 sequence (looked up): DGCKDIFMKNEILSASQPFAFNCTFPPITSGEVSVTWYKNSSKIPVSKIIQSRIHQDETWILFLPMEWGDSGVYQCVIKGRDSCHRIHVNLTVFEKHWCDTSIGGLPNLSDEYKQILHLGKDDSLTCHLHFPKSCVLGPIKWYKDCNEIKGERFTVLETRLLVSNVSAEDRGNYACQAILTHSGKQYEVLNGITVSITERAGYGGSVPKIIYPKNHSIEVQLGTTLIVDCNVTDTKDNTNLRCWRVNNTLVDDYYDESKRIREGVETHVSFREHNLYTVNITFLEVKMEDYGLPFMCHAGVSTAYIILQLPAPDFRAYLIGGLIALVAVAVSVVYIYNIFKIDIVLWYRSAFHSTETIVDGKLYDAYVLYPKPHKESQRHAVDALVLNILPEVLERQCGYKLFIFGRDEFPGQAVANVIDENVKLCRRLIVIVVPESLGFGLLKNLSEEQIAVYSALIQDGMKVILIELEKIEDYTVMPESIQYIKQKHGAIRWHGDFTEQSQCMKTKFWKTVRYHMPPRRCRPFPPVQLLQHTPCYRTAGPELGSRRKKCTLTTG

T3: human IL-36R overexpressed on 293T-hIL36R-NFκB cells (human, UniProt Q9HB29 20-575)
T3 construct: Entry includes the signal peptide; also called IL1RL2; IL-1Rrp2
T3 sequence: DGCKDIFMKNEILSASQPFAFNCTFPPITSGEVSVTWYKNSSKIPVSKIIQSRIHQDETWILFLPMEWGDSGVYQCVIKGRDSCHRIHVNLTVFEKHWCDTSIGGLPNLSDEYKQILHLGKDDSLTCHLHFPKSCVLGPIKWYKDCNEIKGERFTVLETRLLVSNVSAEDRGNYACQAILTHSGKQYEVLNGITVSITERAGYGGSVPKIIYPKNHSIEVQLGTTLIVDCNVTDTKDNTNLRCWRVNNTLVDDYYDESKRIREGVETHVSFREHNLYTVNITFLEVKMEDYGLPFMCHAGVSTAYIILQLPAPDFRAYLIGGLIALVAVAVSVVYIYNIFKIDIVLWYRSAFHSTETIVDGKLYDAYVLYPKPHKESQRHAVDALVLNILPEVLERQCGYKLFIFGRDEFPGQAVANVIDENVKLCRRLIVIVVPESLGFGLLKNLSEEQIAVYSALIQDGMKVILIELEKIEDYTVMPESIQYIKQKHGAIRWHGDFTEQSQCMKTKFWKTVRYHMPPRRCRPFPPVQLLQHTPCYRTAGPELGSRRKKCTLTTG


What was measured:
[1] = molecular target: T1, Human IL-1Rrp2/IL-1R6 protein, His Tag …; test: ELISA, plate coated with human IL-1Rrp2/IL-1R6 His Tag, HRP-protein A/G, OD450
Description: The binding activity of anti-IL-36R antibodies to IL-36R was analyzed by ELISA using human IL-1Rrp2/IL-1R6 protein, His Tag (ACROBiosystems, IL2-H52H6) and CynoIL36R-ECD mFc (for detection of chimeric and humanized antibodies), and hIL36R-ECD hFc and CynoIL36R-ECD hFc protein (for detection of hybridoma antibodies) as antigens. A 96-well plate (Costar, 9018) was coated with 2 μg/mL antigen at 100 μL/well and incubated overnight at 4° C. After the 96-well plate was washed with a washing buffer (PBS containing 0.05% v/v Tween 20), a blocking buffer (PBS containing 2% bovine serum albumin) was added for blocking at 37° C. for 2 h. After the 96-well plate was washed with the washing buffer, 100 μL of the gradient diluted anti-IL-36R antibody of the present disclosure or the reference antibody BI655130 (the initial concentration of the antibody was 66 nM, 4-fold gradient dilution) was added to each well, and the plate was incubated at room temperature for 1 h. After the 96-well plate was washed with the washing buffer, 100 μL of horseradish peroxidase-conjugated recombinant protein A/G (TheroScientific, 32490) was added to each well, and the plate was incubated at room temperature for 1 h. After the 96-well plate was washed with the washing buffer, 100 μL of a TMB solution (Thermo, 00-4201-56) was added to each well, and the plate was incubated at room temperature for 2 min. Finally, 100 μL of a stop solution (2 N H₂SO₄) was added to each well to stop the reaction. Absorbance was read at 450 nm using a microplate reader (PE, Envision), the resulting data was analyzed using GraphPad Prism, and EC₅₀ was calculated. Binding EC₅₀ of the chimeric anti-IL-36R antibodies to hIL-36R in an ELISA assay is shown in FIG. 1. and binding EC₅₀ of the chimeric anti-IL-36R antibodies to CynoIL-36R in an ELISA assay is shown in FIG. 2. The binding of BI655130 is shown as a control, and the binding of IgG4 is shown as a negative control.

[2] = molecular target: T2, IL-36R naturally expressed on OVCAR8 …; test: cell-based or functional assay
[3] = molecular target: T3, human IL-36R overexpressed on …; test: FACS on 293T-hIL36R-NFκB cells, ratio of MFI to background MFI
Description: After the cells was washed with PBS, the cells were resuspended with 100 μL of PBS and then the fluorescence signal was detected using a flow cytometer (BD, Accuri C6). […] The ratio was the ratio of mean fluorescence intensity (MFI) of the experimental group/the background MFI, and the resulting data were analyzed using GraphPad Prism.
Affinity, binding and blocking assays for humanized antibodies hz72C1-1.1, hz72C1-1.2, hz72C1-1.3, hz72C1-2.1, hz72C1-2.2 and hz72C1-2.3 as well as hz84C4-1.1, hz84C4-1.2, hz84C4-1.3, hz84C4-1.4, hz84C4-1.5, hz84C4-2.1, hz84C4-2.2, hz84C4-2.3, hz84C4-2.4 and hz84C4-2.5 were performed according to the methods of Example 4, Example 5. Example 6, Example 7 and Example 8.

Binder	EC50 [1] [nM]	IC50 (M); hIL36α; IL-8 production [2] [M]	IC50 (M); hIL36αβγ; IL-8 production [2] [M]	IC50 (M); hIL36β; IL-8 production [2] [M]	IC50 (M); hIL36γ; IL-8 production [2] [M]	Maximum inhibition rate %; hIL36α; IL-8 production [2] [%]	Maximum inhibition rate %; hIL36αβγ; IL-8 production [2] [%]	Maximum inhibition rate %; hIL36β; IL-8 production [2] [%]	Maximum inhibition rate %; hIL36γ; IL-8 production [2] [%]	EC50 [3] [nM]
hz84C4-1.1 (antibody, human IgG4 S228P, kappa, V domains shown, Humanized, human IgG4 / kappa) VH: QVQLVQSGAEVKKPGASVKVSCKASGYFFTSYWMNWVRQAPGQGLEWMGMIHPYDSETRYAQKFQGRVTMTVDKSTSTVYMELSSLRSEDTAVYYCASSTTAFAYWGQGTLVTVSS VL: DIQMTQSPSSLSASVGDRVTITCRASQDIGNALNWYQQKPGKAPKRLIYATSSLDPGVPSRFSGSRSGTDFTLTISSLQPEDFATYYCLQYASSPYTFGQGTKVEIKR	0.509	2.62e-11	5.25e-11	2.27e-11	1.44e-11	103	93.7	103	103	~5.28
hz84C4-1.2 (antibody, human IgG4 S228P, kappa, V domains shown, Humanized, human IgG4 / kappa) VH: QVQLVQSGAEVKKPGASVKVSCKASGYFFTSYWMNWVRQAPGQGLEWMGYIHPYDSETRYAQKFQGRVTMTVDKSTSTVYMELSSLRSEDTAVYYCASSTTAFAYWGQGTLVTVSS VL: DIQMTQSPSSLSASVGDRVTITCRASQDIGNALNWYQQKPGKAPKRLIYATSSLDPGVPSRFSGSRSGTDFTLTISSLQPEDFATYYCLQYASSPYTFGQGTKVEIKR	0.531	1.02e-10	6.67e-11	9.53e-12	3.42e-12	92.5	82.8	91.2	98.3	6
hz84C4-1.3 (antibody, human IgG4 S228P, kappa, V domains shown, Humanized, human IgG4 / kappa) VH: QVQLVQSGAEVKKPGASVKVSCKASGYFFTSYWMNWVRQAPGQGLEWMGMIYPYDSETRYAQKFQGRVTMTVDKSTSTVYMELSSLRSEDTAVYYCASSTTAFAYWGQGTLVTVSS VL: DIQMTQSPSSLSASVGDRVTITCRASQDIGNALNWYQQKPGKAPKRLIYATSSLDPGVPSRFSGSRSGTDFTLTISSLQPEDFATYYCLQYASSPYTFGQGTKVEIKR	3.41	~2.41e-09	~6.51e-12	~1.43e-09	2.13e-09	16.9	40.7	19.4	57.5	18.2
hz84C4-1.4 (antibody, human IgG4 S228P, kappa, V domains shown, Humanized, human IgG4 / kappa) VH: QVQLVQSGAEVKKPGASVKVSCKASGYYFTSYWMNWVRQAPGQGLEWMGMIHPYDSETRLAQKFKGRVTMTVDKSTSTVYMELSSLRSEDTAVYYCASSTTAFAYWGQGTLVTVSS VL: DIQMTQSPSSLSASVGDRVTITCRASQDIGNALNWYQQKPGKAPKRLIYATSSLDPGVPSRFSGSRSGTDFTLTISSLQPEDFATYYCLQYASSPYTFGQGTKVEIKR	0.684	3.71e-11	5.76e-11	3.48e-11	5.01e-12	94.4	92.5	93.5	109	5.75
hz84C4-1.5 (antibody, human IgG4 S228P, kappa, V domains shown, Humanized, human IgG4 / kappa) VH: QVQLVQSGAEVKKPGASVKVSCKVSGYFFTSYWMNWVNQAPGQGLEWMGMIHPYDSETRLAQKFKGRVTMTVDKSTSTVYMELSSLRSEDTAVYYCASSTTAFAYWGQGTLVTVSS VL: DIQMTQSPSSLSASVGDRVTITCRASQDIGNALNWYQQKPGKAPKRLIYATSSLDPGVPSRFSGSRSGTDFTLTISSLQPEDFATYYCLQYASSPYTFGQGTKVEIKR	0.624	2.87e-11	2.77e-11	1.55e-11	1.27e-11	101	97	101	109	~5.1
hz84C4-2.1 (antibody, human IgG4 S228P, kappa, V domains shown, Humanized, human IgG4 / kappa) VH: QVQLVQSGAEVKKPGASVKVSCKASGYFFTSYWMNWVRQAPGQGLEWMGMIHPYDSETRYAQKFQGRVTMTVDKSTSTVYMELSSLRSEDTAVYYCASSTTAFAYWGQGTLVTVSS VL: DIQMTQSPSSLSASVGDRVTITCRASQDIGNALNWLQQKPGKAPKRLIYATSSLDPGVPSRFSGSRSGTDYTLTISSLQPEDFATYYCLQYASSPYTFGQGTKVEIKR	0.558	5.23e-11	4.82e-11	3.18e-11	1.81e-11	99.5	107	96.8	97.5	~5.22
hz84C4-2.2 (antibody, human IgG4 S228P, kappa, V domains shown, Humanized, human IgG4 / kappa) VH: QVQLVQSGAEVKKPGASVKVSCKASGYFFTSYWMNWVRQAPGQGLEWMGYIHPYDSETRYAQKFQGRVTMTVDKSTSTVYMELSSLRSEDTAVYYCASSTTAFAYWGQGTLVTVSS VL: DIQMTQSPSSLSASVGDRVTITCRASQDIGNALNWLQQKPGKAPKRLIYATSSLDPGVPSRFSGSRSGTDYTLTISSLQPEDFATYYCLQYASSPYTFGQGTKVEIKR	0.533	8.45e-11	6.63e-11	4.64e-11	6.21e-11	95.1	100	95.8	15	~5.23
hz84C4-2.3 (antibody, human IgG4 S228P, kappa, V domains shown, Humanized, human IgG4 / kappa) VH: QVQLVQSGAEVKKPGASVKVSCKASGYFFTSYWMNWVRQAPGQGLEWMGMIYPYDSETRYAQKFQGRVTMTVDKSTSTVYMELSSLRSEDTAVYYCASSTTAFAYWGQGTLVTVSS VL: DIQMTQSPSSLSASVGDRVTITCRASQDIGNALNWLQQKPGKAPKRLIYATSSLDPGVPSRFSGSRSGTDYTLTISSLQPEDFATYYCLQYASSPYTFGQGTKVEIKR	2.25	~9.24e-13	8.23e-11	~2.73e-11	8.76e-10	44.5	33.1	23.4	57	14.5

— patent publication US20240270857A1 (CHIA TAI TIANQING PHARMACEUTICAL GROUP, published 2024)
